{
  "source": "paper PMC3283708",
  "molecular_target": "rat cardiac ryanodine receptor (RyR2) (rat (endogenous in rat ventricular myocytes)) (UniProt B0LPN4)",
  "sequence (B0LPN4 whole entry)": "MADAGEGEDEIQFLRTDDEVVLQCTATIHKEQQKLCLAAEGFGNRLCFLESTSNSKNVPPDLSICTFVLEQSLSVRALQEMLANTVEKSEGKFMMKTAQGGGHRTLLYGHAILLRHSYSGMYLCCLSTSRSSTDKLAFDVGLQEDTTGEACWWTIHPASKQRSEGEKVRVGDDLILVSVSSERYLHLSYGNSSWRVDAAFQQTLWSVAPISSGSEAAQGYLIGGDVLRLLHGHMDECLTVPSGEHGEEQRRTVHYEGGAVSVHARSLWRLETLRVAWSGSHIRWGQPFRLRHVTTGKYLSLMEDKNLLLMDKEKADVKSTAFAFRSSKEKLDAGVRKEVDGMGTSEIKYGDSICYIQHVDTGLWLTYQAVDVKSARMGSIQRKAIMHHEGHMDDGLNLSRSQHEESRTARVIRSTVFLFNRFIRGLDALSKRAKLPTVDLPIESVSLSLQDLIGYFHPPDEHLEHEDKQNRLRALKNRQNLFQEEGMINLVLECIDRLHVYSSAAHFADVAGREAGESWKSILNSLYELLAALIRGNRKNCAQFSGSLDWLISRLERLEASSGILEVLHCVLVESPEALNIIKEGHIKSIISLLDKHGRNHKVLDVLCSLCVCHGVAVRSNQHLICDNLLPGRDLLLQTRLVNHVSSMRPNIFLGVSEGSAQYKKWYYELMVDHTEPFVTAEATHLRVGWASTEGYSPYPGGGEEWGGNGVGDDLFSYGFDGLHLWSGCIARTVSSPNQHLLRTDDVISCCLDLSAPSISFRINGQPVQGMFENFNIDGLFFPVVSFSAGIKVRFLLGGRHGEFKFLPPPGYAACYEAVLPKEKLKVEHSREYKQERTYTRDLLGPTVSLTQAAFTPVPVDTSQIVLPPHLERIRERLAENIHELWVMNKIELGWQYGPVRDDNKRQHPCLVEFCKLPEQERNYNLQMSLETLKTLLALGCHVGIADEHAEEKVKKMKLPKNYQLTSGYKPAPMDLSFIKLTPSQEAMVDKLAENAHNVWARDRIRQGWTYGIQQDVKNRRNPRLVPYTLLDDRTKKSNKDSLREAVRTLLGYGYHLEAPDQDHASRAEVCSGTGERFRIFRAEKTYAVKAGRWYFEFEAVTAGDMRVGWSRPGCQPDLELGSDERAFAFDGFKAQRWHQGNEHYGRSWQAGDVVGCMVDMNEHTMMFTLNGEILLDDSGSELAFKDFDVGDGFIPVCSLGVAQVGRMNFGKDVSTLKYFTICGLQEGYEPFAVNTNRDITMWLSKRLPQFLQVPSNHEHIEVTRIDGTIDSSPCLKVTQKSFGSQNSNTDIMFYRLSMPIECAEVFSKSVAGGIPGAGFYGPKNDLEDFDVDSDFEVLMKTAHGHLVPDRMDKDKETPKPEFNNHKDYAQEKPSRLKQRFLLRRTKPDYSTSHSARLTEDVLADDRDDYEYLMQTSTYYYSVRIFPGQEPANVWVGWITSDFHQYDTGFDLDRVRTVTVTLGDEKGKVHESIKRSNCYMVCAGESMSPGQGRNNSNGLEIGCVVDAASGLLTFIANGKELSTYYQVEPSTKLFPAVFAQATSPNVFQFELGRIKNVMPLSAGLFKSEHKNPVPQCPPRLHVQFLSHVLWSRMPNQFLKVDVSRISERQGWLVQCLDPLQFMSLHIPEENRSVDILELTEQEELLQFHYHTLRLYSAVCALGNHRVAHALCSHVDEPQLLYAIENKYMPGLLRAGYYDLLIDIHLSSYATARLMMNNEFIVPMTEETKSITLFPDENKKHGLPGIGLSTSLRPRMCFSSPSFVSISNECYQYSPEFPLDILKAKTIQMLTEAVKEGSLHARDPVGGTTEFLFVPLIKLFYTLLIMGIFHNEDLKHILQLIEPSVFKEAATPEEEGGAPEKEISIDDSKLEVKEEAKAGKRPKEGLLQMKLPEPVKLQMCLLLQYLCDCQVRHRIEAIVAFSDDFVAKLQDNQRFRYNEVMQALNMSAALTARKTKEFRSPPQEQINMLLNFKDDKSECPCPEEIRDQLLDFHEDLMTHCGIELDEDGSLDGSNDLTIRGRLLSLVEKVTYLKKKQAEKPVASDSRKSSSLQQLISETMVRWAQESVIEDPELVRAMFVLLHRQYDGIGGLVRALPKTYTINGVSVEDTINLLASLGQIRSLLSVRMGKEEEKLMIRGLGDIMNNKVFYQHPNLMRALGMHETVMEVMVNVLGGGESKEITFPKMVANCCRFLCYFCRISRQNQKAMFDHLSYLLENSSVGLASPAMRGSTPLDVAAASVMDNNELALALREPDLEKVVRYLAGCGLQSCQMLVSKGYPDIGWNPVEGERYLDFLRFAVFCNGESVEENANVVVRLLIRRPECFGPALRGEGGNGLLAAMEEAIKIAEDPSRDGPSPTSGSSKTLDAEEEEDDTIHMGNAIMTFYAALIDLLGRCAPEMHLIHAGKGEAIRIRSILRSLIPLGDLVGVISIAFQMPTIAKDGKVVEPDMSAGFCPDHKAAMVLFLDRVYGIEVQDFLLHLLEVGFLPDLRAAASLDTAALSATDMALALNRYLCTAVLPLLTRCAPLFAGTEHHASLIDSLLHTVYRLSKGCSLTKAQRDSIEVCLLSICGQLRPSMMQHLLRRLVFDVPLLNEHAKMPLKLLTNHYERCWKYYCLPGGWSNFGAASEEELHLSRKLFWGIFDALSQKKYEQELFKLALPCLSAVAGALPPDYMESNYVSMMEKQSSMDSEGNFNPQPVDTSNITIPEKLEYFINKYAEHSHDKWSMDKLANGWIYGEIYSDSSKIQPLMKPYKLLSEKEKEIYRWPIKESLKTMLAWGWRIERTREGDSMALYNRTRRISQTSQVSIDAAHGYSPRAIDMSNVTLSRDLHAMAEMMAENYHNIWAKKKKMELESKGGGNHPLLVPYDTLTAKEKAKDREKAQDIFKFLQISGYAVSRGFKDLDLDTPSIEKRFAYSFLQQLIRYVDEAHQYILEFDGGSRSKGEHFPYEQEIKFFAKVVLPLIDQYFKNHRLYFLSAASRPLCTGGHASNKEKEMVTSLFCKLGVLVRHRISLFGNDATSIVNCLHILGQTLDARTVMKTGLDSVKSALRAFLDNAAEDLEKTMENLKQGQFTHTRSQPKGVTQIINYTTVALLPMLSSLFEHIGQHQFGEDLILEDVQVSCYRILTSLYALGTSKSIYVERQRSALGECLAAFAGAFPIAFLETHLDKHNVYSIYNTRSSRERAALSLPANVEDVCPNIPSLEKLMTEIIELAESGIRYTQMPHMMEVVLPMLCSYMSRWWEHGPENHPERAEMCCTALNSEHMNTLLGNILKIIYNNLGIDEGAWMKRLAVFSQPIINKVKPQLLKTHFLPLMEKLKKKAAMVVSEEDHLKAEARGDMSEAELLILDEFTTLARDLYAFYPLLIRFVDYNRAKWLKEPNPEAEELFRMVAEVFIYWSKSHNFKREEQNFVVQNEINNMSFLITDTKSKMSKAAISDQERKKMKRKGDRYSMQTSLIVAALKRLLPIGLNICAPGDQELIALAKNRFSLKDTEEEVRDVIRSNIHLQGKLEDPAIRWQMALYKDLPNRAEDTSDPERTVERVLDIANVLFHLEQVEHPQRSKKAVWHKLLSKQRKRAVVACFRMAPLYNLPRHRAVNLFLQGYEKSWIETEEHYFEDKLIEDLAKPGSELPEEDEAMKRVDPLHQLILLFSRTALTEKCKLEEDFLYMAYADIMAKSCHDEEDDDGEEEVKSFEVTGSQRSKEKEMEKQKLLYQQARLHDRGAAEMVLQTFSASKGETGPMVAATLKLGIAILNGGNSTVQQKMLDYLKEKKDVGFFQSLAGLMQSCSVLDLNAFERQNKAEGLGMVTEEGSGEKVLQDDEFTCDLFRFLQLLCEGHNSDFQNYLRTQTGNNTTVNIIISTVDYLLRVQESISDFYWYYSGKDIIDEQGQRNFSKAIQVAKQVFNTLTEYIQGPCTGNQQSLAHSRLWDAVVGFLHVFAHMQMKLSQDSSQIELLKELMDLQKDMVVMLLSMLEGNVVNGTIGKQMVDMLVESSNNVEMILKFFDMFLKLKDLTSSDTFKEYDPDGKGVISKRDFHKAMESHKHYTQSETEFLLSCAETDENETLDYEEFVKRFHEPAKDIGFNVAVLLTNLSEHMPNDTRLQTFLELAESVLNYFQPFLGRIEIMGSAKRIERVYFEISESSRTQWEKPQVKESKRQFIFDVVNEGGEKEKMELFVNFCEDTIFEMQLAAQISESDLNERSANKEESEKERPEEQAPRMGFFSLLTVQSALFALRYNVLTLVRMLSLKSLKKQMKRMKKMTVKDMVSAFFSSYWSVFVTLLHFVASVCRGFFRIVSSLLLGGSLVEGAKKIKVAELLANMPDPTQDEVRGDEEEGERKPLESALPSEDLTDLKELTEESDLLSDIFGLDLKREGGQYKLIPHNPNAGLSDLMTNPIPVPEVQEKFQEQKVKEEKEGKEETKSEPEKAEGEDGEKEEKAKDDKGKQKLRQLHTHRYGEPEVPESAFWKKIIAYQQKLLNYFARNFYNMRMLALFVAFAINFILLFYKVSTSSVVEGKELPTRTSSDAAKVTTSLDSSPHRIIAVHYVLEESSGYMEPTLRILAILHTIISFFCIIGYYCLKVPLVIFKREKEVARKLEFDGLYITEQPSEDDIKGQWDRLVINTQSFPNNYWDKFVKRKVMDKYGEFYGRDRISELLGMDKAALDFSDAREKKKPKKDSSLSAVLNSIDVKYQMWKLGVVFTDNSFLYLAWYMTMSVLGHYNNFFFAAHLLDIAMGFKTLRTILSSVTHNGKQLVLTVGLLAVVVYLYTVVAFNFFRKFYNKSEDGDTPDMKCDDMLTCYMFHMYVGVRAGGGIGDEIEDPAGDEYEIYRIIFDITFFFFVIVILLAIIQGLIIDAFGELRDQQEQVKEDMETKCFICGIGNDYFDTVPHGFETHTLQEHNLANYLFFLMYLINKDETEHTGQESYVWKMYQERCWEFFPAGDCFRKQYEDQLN",
  "data": [
    {"substance": "FKBP12 (from UniProt P62942 1-108) (natural protein)", "values": [
      {"measurement": "percent increase in the frequency of spontaneous Ca^2+ waves in permeabilised rat cardiac myocytes with 3 µM FKBP12", "value": 50, "unit": "%"},
      {"measurement": "percent increase in the frequency of spontaneous Ca^2+ waves in permeabilised rat cardiac myocytes with 3 µM FKBP12, after pre-incubation with and in the continued presence of 200 nM FKBP12.6", "value": 16.2, "unit": "%"}
    ]}
  ]
}
